In the supplement of paper PMC12042874 one finds amyloid nucleation score data, which are given here for 140 substances.

± gives the uncertainty stated by the source.

The data set is described as follows: amyloid nucleation score (Sup35N fusion, yeast selection) (log enrichment); library NNK1; higher = more nucleation; inactive = no reads after selection. Put shortly:
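After 24 hours of induction with 100 μM copper sulfate, psi-negative yeast expressing peptides of 20 random codons fused to Sup35N were grown for 7 days at 30°C on medium lacking adenine and uracil. Input and output plasmid inserts were sequenced with Illumina, and sequences with under 100 input reads were discarded. Scores for nucleation are the DiMSum log enrichment of output over input reads, centred on the mode score of non-aggregating sequences.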

MDRALQRSWRLGLRPGEGGS: the amyloid nucleation score was -0.455 ± 0.62.

Regarding DSTFHMDYY, the amyloid nucleation score was -0.121 ± 0.5.

For the substance MFWQHQLFVESRQNSSFTSF, the amyloid nucleation score was -0.23 ± 0.63.

Substance FGVYLACIHRKVLECDR showed an amyloid nucleation score of -0.241 ± 1.

Substance QLVYCCLLILIYTYEC had an amyloid nucleation score of 0.499 ± 0.42.

For ENVGRTLAYIWMVWLSSQML, the amyloid nucleation score stood at 1.87 ± 0.67.

Turning to GSDMCKSSVSECIKKLATIQ, the amyloid nucleation score result was “inactive”.

The substance ICSYTSIVYLFWDDLSLSTL yielded an amyloid nucleation score of 1.7 ± 0.64.

Substance YVRMACMLGLHSRYWMHRVV yielded an amyloid nucleation score of -0.267 ± 0.6.

In turn, MGHAGTLCFANNCLNM displayed an amyloid nucleation score of 7.483 ± 0.059.

YRVHVCQEWMGSWCCGCVKG gave an amyloid nucleation score of 2.54 ± 0.2.

As for YSMLCLKYL, the amyloid nucleation score result is “inactive”.

On to LAPGGDWYY, for which the amyloid nucleation score entry is “inactive”.

Substance NRIKWVKRFSIPFLTWYEDW returned an amyloid nucleation score of 0.499 ± 0.53.

LARDYGFD yielded an amyloid nucleation score of 0.051 ± 0.3.

Regarding YNVIWSMVGEYLHSSCYGPV, the amyloid nucleation score entry is “inactive”.

In the case of PALWDLCVPKLIVANLIERS, the amyloid nucleation score is -1.1 ± 1.4.

For the substance GNNLHLRS, the amyloid nucleation score is -0.121 ± 0.66.

LFEGHLTSISEPGVVDRSIR registered an amyloid nucleation score of -0.573 ± 1.7.

In the case of QSVGMWSY, the amyloid nucleation score is -0.256 ± 0.88.

With KSDRIKLYNKCWELAVLMKK, the amyloid nucleation score was -0.555 ± 1.1.

In the case of CLIYYVYSRWIIPMYITGRR, the amyloid nucleation score is -0.27 ± 0.81.

VYFIVVVKGRSGLFMLSFGD came in with an amyloid nucleation score of -0.997 ± 1.4.

For RSFPSTFLLVLLQDSRC, the amyloid nucleation score came out at 2.17 ± 0.24.

Turning to LCSFKFSVRPLCKKRFKVRV, the amyloid nucleation score is 0.099 ± 0.34.

On to RSGTPQSERDGGGFTEVKKT, for which the amyloid nucleation score was -0.205 ± 0.42.

With CDIIYFACGDREV, the amyloid nucleation score entry was “inactive”.

CRQGMTLAVREPGASTSVYN gave an amyloid nucleation score of 0.47 ± 0.71.

WEVERDTSSPSEIVINR had an amyloid nucleation score of -0.063 ± 0.89.

In turn, CVFIHRSFHTLFSGRRVDYP displayed an amyloid nucleation score of 0.229 ± 0.55.

As for SVRYWAYRFVHF, the amyloid nucleation score entry was “inactive”.

Turning to TKSTLL, the amyloid nucleation score was -0.296 ± 0.64.

For the substance GELLTLHITGLNEVLVNTSM, the amyloid nucleation score was -0.21 ± 0.31.

With PDHLTIQSCDARYGFASQL, the amyloid nucleation score was found to be 1.78 ± 0.47.

VNVIWAFYNN: the amyloid nucleation score came to 5.7 ± 0.072.

On to GPISLWSPLRSVN, for which the amyloid nucleation score was 0.444 ± 0.84.

The substance SDYIWWRLCGGIKCQGGELG registered an amyloid nucleation score of -1.74 ± 2.1.

The substance VSCCSNLVY returned an amyloid nucleation score of 0.144 ± 0.26.

MDKSTMVGIKCTMRVSRQMG showed an amyloid nucleation score of -0.158 ± 0.56.

As to GRKIDCGRLIMIAVRCNQVA, the amyloid nucleation score came out at 0.358 ± 0.41.

The substance VEAMLTEPWRWH gave an amyloid nucleation score of -0.522 ± 1.7.

In turn, NTVFVIDESFGVMGWLGLKQ registered an amyloid nucleation score of 0.294 ± 0.82.

As for VRSDAVKEARISFCLRSKRF, the amyloid nucleation score worked out at 0.423 ± 1.4.

In the case of SFGPIVCGFVVKRMWKCNIG, the amyloid nucleation score is 3.63 ± 0.12.

The substance YSLNFYAMPRSSI had an amyloid nucleation score of 3.76 ± 0.1.

Substance FPRHYCTYWG had an amyloid nucleation score of -0.157 ± 0.36.

GVLVKNQGLLVNAIHSMQTN registered an amyloid nucleation score of -0.797 ± 2.4.

The substance LKLGYMNLLISDRCAVIERY displayed an amyloid nucleation score of 0.969 ± 0.81.

Turning to HRIWRLLALNT, the amyloid nucleation score is -0.583 ± 0.54.

The substance TLTCFLIYHTWTR displayed an amyloid nucleation score of -1.34 ± 1.4.

On to ANAELVYNRLFRSTNPLGCV, for which the amyloid nucleation score result is “inactive”.

The substance LNINSKYLNLICYHIRHLAV returned an amyloid nucleation score of -0.593 ± 0.78.

As to ARGYPLTYKYQVSRGSRLTL, the amyloid nucleation score was 0.439 ± 0.4.

For the substance KRLTMVVRGKLSVLHP, the amyloid nucleation score worked out at 3.74 ± 0.12.

In turn, LWKLLAAGVGNMCDD displayed an amyloid nucleation score of -0.503 ± 0.38.

Substance IMCIHSFCFCLRPSHLIVGG gave an amyloid nucleation score of 0.774 ± 0.41.

In the case of SKYRLNAMWSACRQRWANIG, the amyloid nucleation score is -0.995 ± 1.7.

FGSMLNGVRYQ: the amyloid nucleation score came to 0.747 ± 0.66.

As to PCTMGMYIGAGHR, the amyloid nucleation score was determined as 0.418 ± 1.

As to ALNGSNRIIACTIIWCVVW, the amyloid nucleation score was determined as 2.51 ± 0.18.

In turn, NQFMHGTETYFEDINALVWG showed an amyloid nucleation score of 1.43 ± 0.66.

The substance SRGLRNLSSMPNWAGLP registered an amyloid nucleation score of 0.707 ± 0.61.

On to VHVLWLWQSMLLVHWSAV, for which the amyloid nucleation score was 1.29 ± 0.93.

NFCEVYGANIN: the amyloid nucleation score entry is “inactive”.

Substance MFFVFSYSRS came in with an amyloid nucleation score of 1.52 ± 0.28.

In turn, SPQQVSLVGWSRWTEPRTS showed an amyloid nucleation score of -0.211 ± 0.36.

In turn, DSSLRDKYVTKNVFIFSMSG displayed an amyloid nucleation score of 4.71 ± 0.063.

WGNFAVSWVFMEVNACRLRW: the amyloid nucleation score is -0.323 ± 0.66.

Consider LCYAGVVLQYVILDHKRSCD, for which the amyloid nucleation score came to 6.233 ± 0.059.

Regarding LNMHSR, the amyloid nucleation score entry is “inactive”.

In the case of QTVGGRFSSFY, the amyloid nucleation score entry is “inactive”.

As to QDDISLKFLGFGMIVSLIMF, the amyloid nucleation score is 0.007 ± 0.24.

With FLLLFDQFSVLMCCAQVLCL, the amyloid nucleation score amounted to 4.56 ± 0.058.

Turning to YYSHIIQAGCWVVYRDVRLF, the amyloid nucleation score came to 0.52 ± 0.88.

As for MLGKNSSCESNMEYVFRSCL, the amyloid nucleation score was 0.244 ± 0.23.

Regarding DIRLTMRVSSLSM, the amyloid nucleation score was determined as 0.566 ± 0.31.

For TVVIDSFLCRLQNGVDLGS, the amyloid nucleation score entry is “inactive”.

WVRGSYPPDAHR displayed an amyloid nucleation score of 1.86 ± 0.29.

With KCTWTN, the amyloid nucleation score was 0.255 ± 0.87.

Consider YYMMTKRGFNMILCCCCRCF, for which the amyloid nucleation score worked out at 0.667 ± 0.2.

In turn, TVYMGTLCHYYSGIRLGSIL gave an amyloid nucleation score of 0.458 ± 0.4.

As for EVHGFNRCGLKSIRVHKVYA, the amyloid nucleation score worked out at 0.839 ± 0.62.

FLFAMFNSISMKSAKLKWNR: the amyloid nucleation score worked out at 3.91 ± 0.086.

Substance FSDVCGPSPLCW displayed an amyloid nucleation score of 0.142 ± 0.44.

Turning to GFLIGRSD, the amyloid nucleation score amounted to 0.022 ± 0.43.

Regarding RVRGSASMLLSLMCSFTMYE, the amyloid nucleation score amounted to 3.3 ± 0.14.

Consider TFSTGFGGIISLACVRRQYL, for which the amyloid nucleation score was determined as 0.049 ± 0.88.

As to DLLFMLRGAWAKSFMMGSVG, the amyloid nucleation score was 0.059 ± 0.43.

Consider VQEFYDLKEYWS, for which the amyloid nucleation score is -0.265 ± 0.35.

With GFSEKQNY, the amyloid nucleation score is 0.383 ± 0.54.

Regarding TCLCD, the amyloid nucleation score came out at 1.52 ± 0.46.

Regarding LSVIIII, the amyloid nucleation score came to 4.96 ± 0.051.

Turning to PLAMNSFVIVIDGRLHVLGD, the amyloid nucleation score is 4.72 ± 0.12.

Consider LQNVGRENEESTCERRSKVY, for which the amyloid nucleation score entry is “inactive”.

In the case of VTSSFWFFNDADSRQ, the amyloid nucleation score is 3.24 ± 0.1.

With QYMREEAGVALNGETHFFSL, the amyloid nucleation score came out at 0.567 ± 0.39.

SCVLESIQEFWS gave an amyloid nucleation score of -0.3 ± 0.24.

For the substance FVLRV, the amyloid nucleation score turned out to be 0.423 ± 0.47.

VWYFISTYCWDRPKVILSGV: the amyloid nucleation score is -1.39 ± 1.9.

Substance FLNGKSGHAVVKLEGLMTNW gave an amyloid nucleation score of 0.447 ± 0.32.

VHDVWEGFICGLPKYRGRLM had an amyloid nucleation score of 0.026 ± 0.75.

Substance LQLYQVFSVHYEC yielded an amyloid nucleation score of 3.08 ± 0.11.

In turn, LAPMDLCGGSVAFR yielded an amyloid nucleation score of 0.47 ± 0.4.

For the substance RYNRLCTSLGRFKVVKSILS, the amyloid nucleation score worked out at 0.131 ± 0.33.

For YIGRGNMHELFHRLLRGCVL, the amyloid nucleation score entry is “inactive”.

In turn, GSKRT had an amyloid nucleation score of 0.316 ± 0.42.

As for FFGNLVRWSNGYGDHCYSLN, the amyloid nucleation score came to 2.51 ± 0.22.

For FHYLMDYSRLNDIPLEDWGW, the amyloid nucleation score was -0.411 ± 0.73.

Substance SLLNTELQIKAQYDQMSHRR had an amyloid nucleation score of 0.36 ± 0.44.

SYHLLMHMGIGQTLYKTRYD registered an amyloid nucleation score of 1.98 ± 0.21.

In the case of LCISARDLNNFGRNHMHFLL, the amyloid nucleation score is -0.296 ± 0.34.

In turn, AGQVYRFAVSVRSSKLIVAR returned an amyloid nucleation score of 0.966 ± 0.45.

Turning to RCCKQTSRVDMC, the amyloid nucleation score was 0.156 ± 1.6.

VSWYSSVIKL: the amyloid nucleation score entry is “inactive”.

Substance YQSFLASACSSEPIRFSKQH showed an amyloid nucleation score of 0.915 ± 0.66.

DDGPLWRMKEMCLVTVRGSE registered an amyloid nucleation score of 0.91 ± 0.29.

For FHVHSVLISE, the amyloid nucleation score is -0.166 ± 0.84.

For CITFMVRYGLRLHR, the amyloid nucleation score came to 0.089 ± 0.58.

In the case of WNDYAHILLKKRGGRYNLAG, the amyloid nucleation score is -0.907 ± 0.74.

IYCHWNGFRGPYVIPRGCVV came in with an amyloid nucleation score of 0.819 ± 0.51.

For the substance LGCLYIA, the amyloid nucleation score is -0.711 ± 0.44.

For the substance LVCVSQVYGALDTCGPVSMM, the amyloid nucleation score turned out to be 0.379 ± 0.54.

IVHMIYWVM registered an amyloid nucleation score of 0.009 ± 0.61.

MRVLDTNSGLMTITPFPVHS returned an amyloid nucleation score of -0.574 ± 0.67.

In the case of VSVGVILCSVRNKVNRGMDD, the amyloid nucleation score entry is “inactive”.

SASGAWSGWPHRKVGYGSSL returned an amyloid nucleation score of 0.664 ± 0.36.

The substance PTHDILFVTDSLTAKANDMV came in with an amyloid nucleation score of -0.189 ± 0.32.

HLPFYLCF: the amyloid nucleation score was found to be 1.57 ± 0.43.

SLVPVYI returned an amyloid nucleation score of 0.167 ± 0.35.

HMSDNGLSSMKRVYVVYPTT came in with an amyloid nucleation score of -0.049 ± 0.23.

LSEDVHRTVVRYWMKSRR yielded an amyloid nucleation score of 1.74 ± 0.31.

As to RDHCARYHARDGTEPYSGHR, the amyloid nucleation score entry was “inactive”.

Regarding VTIAHNGNLSCRLYTYVQVR, the amyloid nucleation score is 0.515 ± 0.57.

TYPYMCNHFLVLELNVIVAL had an amyloid nucleation score of 0.363 ± 0.58.

As to WTLQMLAYWYLTFFFPSFVY, the amyloid nucleation score came to 0.169 ± 0.37.

Consider SRWFCYRLVFTFVGPTRHLD, for which the amyloid nucleation score was 0.172 ± 0.77.

Substance YAFRSRHRSFSFIGTLMVFD yielded an amyloid nucleation score of 0.55 ± 0.5.

Substance EAGKLL registered an amyloid nucleation score of 0.309 ± 0.32.

As for EDAWGIIEEIIGWRGCGRLA, the amyloid nucleation score was -0.84 ± 0.74.

In turn, FMATNTKAMGPLRSAK showed an amyloid nucleation score of 0.224 ± 0.58.
